Measurements taken from patent US8252740B2, “Thermally-targeted delivery of medicaments including doxorubicin” (The University of Mississippi Medical Center, priority 2006, dated 2012).

Tests used:
[1] = Turbidity assay of the transition temperature (Tt); format: physicochemical
Experimental: In order to apply ELP-based polypeptides for drug delivery, a suitable temperature transition must be attained. The drug-labeled ELP should undergo its phase transition between 39 and 42° C., a temperature range sufficiently above normal body temperature to prevent unwanted systemic aggregation, but not hot enough to cause extensive toxicity. Elastin-like polypeptide is ideally suited as a thermally targeted drug carrier because the transition temperature can be easily manipulated by varying the molecular weight or the amino acid composition of the guest residue X in the VPGXG (SEQ ID NO: 2) sequence using simple molecular biology techniques. The transition temperature of Tat-ELP-GFLG-DOX (SEQ ID NO: 3) was assessed by monitoring the turbidity of a solution of the polypeptide while heating in physiological buffer. […] The polypeptide is soluble and the solution is clear at physiological temperature (37° C.).
1.4. Characterization of the Transition Temperature. The temperature induced aggregation of the proteins was characterized by monitoring absorbance at 350 nm while increasing the temperature. For initial analysis of Dox-labeled ELPs, solutions containing 10 μM protein in PBS were heated or cooled at a constant rate of 1° C./min in a temperature-controlled multicell holder in a UV-visible spectrophotometer (Cary 100, Varian instruments). The analysis was repeated with Tat-ELP1-GFLG-Dox (SEQ ID NO: 3) at concentrations ranging from 1 μM to 30 μM in cell culture media in order to determine the concentration dependence of the phase transition under experimental conditions. Absorbance data was converted to percentage of the maximal absorbance for each curve, and the Tt was defined as the temperature at which the OD350 reached 50% of the maximum turbidity. The concentration dependence of the Tt was fit using a logarithmic equation.
3.2. Thermal Properties of the Dox Delivery Vector. […] The Tt of Tat-ELP-GFLG-Dox (SEQ ID NO: 3) was assessed by monitoring the turbidity of a 10 μM solution of the polypeptide while heating in PBS. […]

[2] = system: MES-SA cells; test: DIC microscopy of apoptotic cell morphology; format: cell-based, human; settings: 10 μM
Experimental: 1.9. Apoptosis Assays. For differential interference contrast (DIC) microscopy, MES-SA cells were plated onto 22 mm^2 coverslips at 50% confluence. Cells were treated as described above with the indicated protein, rinsed with PBS, and mounted onto glass slides. The unfixed cells were imaged immediately using a Zeiss Axiovert 200 DIC microscope with a 40× oil immersion objective and a Coolsnap HQ camera.
2.6. Induction of Apoptosis. […] This effect was documented by treating MES-SA cells adhered to glass cover slips with each construct and imaging them by DIC microscopy. Cells were treated for 1 h as described above, then immediately mounted on slides and imaged without fixation. […] Untreated cells were spread onto the glass, and morphological features such as nuclei and endocytic vesicles were readily visible. This morphology was not altered by simply exposing the cells to hyperthermia. […] However, such effects were minor and limited to a fraction of the cells. […] All cells examined were rounded with no discernable nucleus and fragmented chromosomes.

Substance: Tat-ELP1-GFLG-Dox
- Transition temperature (Tt) ([1]; 10 μM in PBS, heated 1° C./min, midpoint of turbidity): 40 °C
- State of the solution at physiological temperature ([1]; 37° C.): soluble
- State of the solution at hyperthermia temperature ([1]; 42° C.): aggregated
- Cell morphology (hallmarks of apoptosis) ([2]; 1 h at 37° C. (below the Tt)): more extensive rounding and blebbing
- Cell morphology (hallmarks of apoptosis) ([2]; 1 h at 42° C. (above the Tt)): normal cell morphology was completely destroyed
